Experimental data as given in paper PMC9477884 (Communications Biology, 2022).

Assays:
[1] = target: the molecule itself; experiment: SEC-MALS; MazE6 in solution; observed mol. wt. 17 kDa
MazE6 = target: T1, MazE6 (UniProt P9WJ87 1-82); experiment: gel filtration; conditions: protein: recombinant; chain copies: 2; blunt
T1 sequence: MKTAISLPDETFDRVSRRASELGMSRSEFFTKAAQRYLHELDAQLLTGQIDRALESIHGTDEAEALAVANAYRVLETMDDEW

B1: MazE6 antitoxin (residue 1-82) (natural protein)
chain: MKTAISLPDETFDRVSRRASELGMSRSEFFTKAAQRYLHELDAQLLTGQIDRALESIHGTDEAEALAVANAYRVLETMDDEW
In the case of B1, the “stoichiometry N” value [1] is reported as 2.

B2: mazEF6 operator DNA (dsDNA)
DNA 1: CCGGTTATACTATCTGTA
DNA 2: TACAGATAGTATAACCGG
B2: binds (MazE6).
